Measurements as given in patent US20150361464A1, “METHODS, REAGENTS AND CELLS FOR BIOSYNTHESIZING COMPOUNDS” (INVISTA North America S.á r.l., priority 2014, published 2015).

How the values were obtained:
Format in all cases: biochemical
[1] = ω-transaminase enzyme activity assay (cadaverine to 5-aminopentanal), cell free extract
Protocol: A nucleotide sequence encoding an N-terminal His-tag was added to the Chromobacterium violaceum, Pseudomonas aeruginosa, Pseudomonas syringae, and Escherichia coli genes encoding the ω-transaminases of SEQ ID NOs: 8 to 10 and 12, respectively (see, FIG. 10) such that N-terminal HIS tagged ω-transaminases could be produced. The modified genes were cloned into a pET21a expression vector under the T7 promoter. Each expression vector was transformed into a BL21[DE3] E. coli host. Each resulting recombinant E. coli strain were cultivated at 37° C. in a 250 mL shake flask culture containing 50 mL LB media and antibiotic selection pressure, with shaking at 230 rpm. Each culture was induced overnight at 16° C. using 1 mM IPTG.
(§1) The pellet from each induced shake flask culture was harvested via centrifugation. Each pellet was resuspended and lysed via sonication. The cell debris was separated from the supernatant via centrifugation and the cell free extract was used immediately in enzyme activity assays.
Enzyme activity assays in the reverse direction (i.e., cadaverine to 5-aminopentanal) were performed in a buffer composed of a final concentration of 50 mM HEPES buffer (pH=7.5), 10 mM cadaverine, 10 mM pyruvate, and 100 μM pyridoxyl 5′ phosphate. […] The formation of L-alanine was quantified via RP-HPLC.

[2] = carboxylate reductase enzyme activity assay (5-hydroxypentanoate to 5-hydroxypentanal), NADPH consumption at 340 nm; settings: purified enzyme enhanced by the gene product of sfp; 1 mM ATP, 1 mM NADPH, pH 7.5, room temperature, 20 minutes; against the empty vector control; FIG. 14
Protocol: A nucleotide sequence encoding a His-tag was added to the genes from Mycobacterium marinum, Mycobacterium smegmatis, Segniliparus rugosus, Mycobacterium massiliense, and Segniliparus rotundus that encode the carboxylate reductases of SEQ ID NOs: 2-4, 6 and 7, respectively (GenBank Accession Nos. ACC40567.1, ABK71854.1, EFV11917.1, EIV11143.1, and ADG98140.1, respectively) (see FIG. 10) such that N-terminal HIS tagged carboxylate reductases could be produced. Each of the modified genes was cloned into a pET Duet expression vector alongside a sfp gene encoding a His-tagged phosphopantetheine transferase from Bacillus subtilis, both under control of the T7 promoter. Each expression vector was transformed into a BL21[DE3] E. coli host along with the expression vectors from Example 3. Each resulting recombinant E. coli strain was cultivated at 37° C. in a 250 mL shake flask culture containing 50 mL LB media and antibiotic selection pressure, with shaking at 230 rpm. Each culture was induced overnight at 37° C. using an auto-induction media. […]
Enzyme activity (i.e., 5-hydroxypentanoate to 5-hydroxypentanal) assays were performed in triplicate in a buffer composed of a final concentration of 50 mM HEPES buffer (pH=7.5), 2 mM 5-hydroxypentanal, 10 mM MgCl2, 1 mM ATP, and 1 mM NADPH. […] The consumption of NADPH was monitored by absorbance at 340 nm. […]

[3] = ω-transaminase enzyme activity assay, forward direction (glutarate semialdehyde to 5-aminopentanoate), cell free extract
Protocol: A nucleotide sequence encoding an N-terminal His-tag was added to the genes from Chromobacterium violaceum and Rhodobacter sphaeroides encoding the ω-transaminases of SEQ ID NOs: 8 and 10 respectively (see FIG. 10) such that N-terminal HIS tagged ω-transaminases could be produced. Each of the resulting modified genes was cloned into a pET21a expression vector under control of the T7 promoter and each expression vector was transformed into a BL21[DE3] E. coli host. The resulting recombinant E. coli strains were cultivated at 37° C. in a 250 mL shake flask culture containing 50 mL LB media and antibiotic selection pressure, with shaking at 230 rpm. Each culture was induced overnight at 16° C. using 1 mM IPTG.
as §1
Enzyme activity in the forward direction (i.e., glutarate semialdehyde to 5-aminopentanoate) was confirmed for the transaminase of SEQ ID NO: 10. Enzyme activity assays were performed in a buffer composed of a final concentration of 50 mM HEPES buffer (pH=7.5), 10 mM glutarate semialdehyde, 10 mM L-alanine and 100 μM pyridoxyl 5′ phosphate. Each enzyme activity assay reaction was initiated by adding a cell free extract of the ω-transaminase gene product or the empty vector control to the assay buffer containing the glutarate semialdehyde and incubated at 25° C. for 4 hours, with shaking at 250 rpm. The formation of pyruvate was quantified via RP-HPLC.

B1: SEQ ID NO: 12: Escherichia coli ω-transaminase, N-terminal HIS tagged, cell free extract (protein, listed as Escherichia coli)
chain: MNRLPSSASALACSAHALNLIEKRTLDHEEMKALNREVIEYFKEHVNPGFLEYRKSVTAGGDYGAVEWQAGSLNTLVDTQGQEFIDCLGGFGIFNVGHRNPVVVSAVQNQLAKQPLHSQELLDPLRAMLAKTLAALTPGKLKYSFFCNSGTESVEAALKLAKAYQSPRGKFTFIATSGAFHGKSLGALSATAKSTFRKPFMPLLPGFRHVPFGNIEAMRTALNECKKTGDDVAAVILEPIQGEGGVILPPPGYLTAVRKLCDEFGALMILDEVQTGMGRTGKMFACEHENVQPDILCLAKALGGGVMPIGATIATEEVFSVLFDNPFLHTTTFGGNPLACAAALATINVLLEQNLPAQAEQKGDMLLDGFRQLAREYPDLVQEARGKGMLMAIEFVDNEIGYNFASEMFRQRVLVAGTLNNAKTIRIEPPLTLTIEQCELVIKAARKALAAMRVSVEEA
modifications: N-terminal His tag
notes: Escherichia coli ω-transaminase, N-terminal HIS tagged, cell free extract
[1]; 10 mM cadaverine, 10 mM pyruvate, pH 7.5, 25° C., 4 hours, against the empty vector control, FIG. 11
  acceptance of cadaverine as substrate (formation of L-alanine from pyruvate, RP-HPLC): accepted cadaverine as substrate
[1]; conclusion given reversibility (Example 1)
  acceptance of 5-aminopentanal as substrate forming cadaverine, concluded from reversibility of the ω-transaminase activity: accept 5-aminopentanal as substrate and form cadaverine

B2: SEQ ID NO: 7: Segniliparus rotundus carboxylate reductase, N-terminal HIS tagged (protein, listed as Segniliparus rotundus)
chain: MTQSHTQGPQASAAHSRLARRAAELLATDPQAAATLPDPEVVRQATRPGLRLAERVDAILSGYADRPALGQRSFQTVKDPITGRSSVELLPTFDTITYRELRERATAIASDLAHHPQAPAKPGDFLASIGFISVDYVAIDIAGVFAGLTAVPLQTGATLATLTAITAETAPTLFAASIEHLPTAVDAVLATPSVRRLLVFDYRAGSDEDREAVEAAKRKIADAGSSVLVDVLDEVIARGKSAPKAPLPPATDAGDDSLSLLIYTSGSTGTPKGAMYPERNVAHFWGGVWAAAFDEDAAPPVPAINITFLPLSHVASRLSLMPTLARGGLMHFVAKSDLSTLFEDLKLARPTNLFLVPRVVEMLYQHYQSELDRRGVQDGTREAEAVKDDLRTGLLGGRILTAGFGSAPLSAELAGFIESLLQIHLVDGYGSTEAGPVWRDGYLVKPPVTDYKLIDVPELGYFSTDSPHPRGELAIKTQTILPGYYKRPETTAEVFDEDGFYLTGDVVAQIGPEQFAYVDRRKNVLKLSQGEFVTLAKLEAAYSSSPLVRQLFVYGSSERSYLLAVIVPTPDALKKFGVGEAAKAALGESLQKIARDEGLQSYEVPRDFIIETDPFTVENGLLSDARKSLRPKLKEHYGERLEAMYKELADGQANELRDIRRGVQQRPTLETVRRAAAAMLGASAAEIKPDAHFTDLGGDSLSALTFSNFLHDLFEVDVPVGVIVSAANTLGSVAEHIDAQLAGGRARPTFATVHGKGSTTIKASDLTLDKFIDEQTLEAAKHLPKPADPPRTVLLTGANGWLGRFLALEWLERLAPAGGKLITIVRGKDAAQAKARLDAAYESGDPKLAGHYQDLAATTLEVLAGDFSEPRLGLDEATWNRLADEVDFISHPGALVNHVLPYNQLFGPNVAGVAEIIKLAITTRIKPVTYLSTVAVAAGVEPSALDEDGDIRTVSAERSVDEGYANGYGNSKWGGEVLLREAHDRTGLPVRVFRSDMILAHQKYTGQVNATDQFTRLVQSLLATGLAPKSFYELDAQGNRQRAHYDGIPVDFTAESITTLGGDGLEGYRSYNVFNPHRDGVGLDEFVDWLIEAGHPITRIDDYDQWLSRFETSLRGLPESKRQASVLPLLHAFARPGPAVDGSPFRNTVFRTDVQKAKIGAEHDIPHLGKALVLKYADDIKQLGLL
modifications: N-terminal His tag
notes: Segniliparus rotundus carboxylate reductase, N-terminal HIS tagged
[2]
  acceptance of 5-hydroxypentanoate as substrate (consumption of NADPH, absorbance at 340 nm): accepted 5-hydroxypentanoate as substrate

B3: SEQ ID NO: 6: Mycobacterium massiliense carboxylate reductase, N-terminal HIS tagged (protein)
chain: MTNETNPQQEQLSRRIESLRESDPQFRAAQPDPAVAEQVLRPGLHLSEAIAALMTGYAERPALGERARELVIDQDGRTTLRLLPRFDTTTYGELWSRTTSVAAAWHHDATHPVKAGDLVATLGFTSIDYTVLDLAIMILGGVAVPLQTSAPASQWTTILAEAEPNTLAVSIELIGAAMESVRATPSIKQVVVFDYTPEVDDQREAFEAASTQLAGTGIALETLDAVIARGAALPAAPLYAPSAGDDPLALLIYTSGSTGAPKGAMHSENIVRRWWIREDVMAGTENLPMIGLNFMPMSHIMGRGTLTSTLSTGGTGYFAASSDMSTLFEDMELIRPTALALVPRVCDMVFQRFQTEVDRRLASGDTASAEAVAAEVKADIRDNLFGGRVSAVMVGSAPLSEELGEFIESCFELNLTDGYGSTEAGMVFRDGIVQRPPVIDYKLVDVPELGYFSTDKPHPRGELLLKTDGMFLGYYKRPEVTASVFDADGFYMTGDIVAELAHDNIEIIDRRNNVLKLSQGEFVAVATLEAEYANSPVVHQIYVYGSSERSYLLAVVVPTPEAVAAAKGDAAALKTTIADSLQDIAKEIQLQSYEVPRDFIIEPQPFTQGNGLLTGIAKLARPNLKAHYGPRLEQMYAEIAEQQAAELRALHGVDPDKPALETVLKAAQALLGVSSAELAADAHFTDLGGDSLSALSFSDLLRDIFAVEVPVGVIVSAANDLGGVAKFVDEQRHSGGTRPTAETVHGAGHTEIRAADLTLDKFIDEATLHAAPSLPKAAGIPHTVLLTGSNGYLGHYLALEWLERLDKTDGKLIVIVRGKNAEAAYGRLEEAFDTGDTELLAHFRSLADKHLEVLAGDIGDPNLGLDADTWQRLADTVDVIVHPAALVNHVLPYNQLFGPNVVGTAEIIKLAITTKIKPVTYLSTVAVAAYVDPTTFDEESDIRLISAVRPIDDGYANGYGNAKWAGEVLLREAHDLCGLPVAVFRSDMILAHSRYTGQLNVPDQFTRLILSLIATGIAPGSFYQAQTTGERPLAHYDGLPGDFTAEAITTLGTQVPEGSEGFVTYDCVNPHADGISLDNFVDWLIEAGYPIARIDNYTEWFTRFDTAIRGLSEKQKQHSLLPLLHAFEQPSAAENHGVVPAKRFQHAVQAAGIGPVGQDGTTDIPHLSRRLIVKYAKDLEQLGLL
modifications: N-terminal His tag; Mycobacterium massiliense
notes: Mycobacterium massiliense carboxylate reductase, N-terminal HIS tagged
[2]
  acceptance of 5-hydroxypentanoate as substrate (consumption of NADPH, absorbance at 340 nm): accepted 5-hydroxypentanoate as substrate

B4: SEQ ID NO: 10: Pseudomonas syringae ω-transaminase (b222 says Rhodobacter sphaeroides), N-terminal HIS tagged, cell free extract (protein, listed as Pseudomonas syringae)
chain: MSANNPQTLEWQALSSEHHLAPFSDYKQLKEKGPRIITRAEGVYLWDSEGNKILDGMSGLWCVAIGYGREELADAASKQMRELPYYNLFFQTAHPPVLELAKAISDIAPEGMNHVFFTGSGSEGNDTMLRMVRHYWALKGQPNKKTIISRVNGYHGSTVAGASLGGMTYMHEQGDLPIPGVVHIPQPYWFGEGGDMTPDEFGIWAAEQLEKKILELGVENVGAFIAEPIQGAGGVIVPPDSYWPKIKEILSRYDILFAADEVICGFGRTSEWFGSDFYGLRPDMMTIAKGLTSGYVPMGGLIVRDEIVAVLNEGGDFNHGFTYSGHPVAAAVALENIRILREEKIVERVRSETAPYLQKRLRELSDHPLVGEVRGVGLLGAIELVKDKTTRERYTDKGAGMICRTFCFDNGLIMRAVGDTMIIAPPLVISFAQIDELVEKARTCLDLTLAVLQG
modifications: N-terminal His tag
[3]; 10 mM glutarate semialdehyde, 10 mM L-alanine, pH 7.5, 25° C., 4 hours, against the empty vector control, FIG. 16
  acceptance of glutarate semialdehyde as substrate (formation of pyruvate from L-alanine, RP-HPLC): accepted glutarate semialdehyde as substrate
[3]; conclusion from reverse and forward direction assays
  acceptance of glutarate semialdehyde as substrate and synthesis of 5-aminopentanoate, concluded from reversibility of the ω-transaminase activity: accepted glutarate semialdehyde as substrate and synthesized 5-aminopentanoate
